Assay results as given in paper PMC7040160, “Indium-111-labeled CD166-targeted peptide as a potential nuclear imaging agent for detecting colorectal cancer stem-like cells in a xenograft mouse model” (EJNMMI Research, 2020).
Residues, ends and D or L forms follow the SMILES beside them. No end group written: not given here. *: point of attachment. X1 = O=C(O)CN(CCN(CCN(CC(=O)O)CC(=O)O)C(CCCCNC(=O)CCCN1C(=O)CC(*)C1=O)C(=O)O)CC(=O)O

Key:
[1] = tested on: CD166^+HCT15 xenograft mice; details: mouse, in vivo
Procedure: The male BALB/c nude mice were subcutaneously inoculating CD166^+HCT15 cells (1 × 10^6 cells) for 2 weeks, and then the ^111In-DTPA, ^111In-DTPA-G18C, ^111In-DTPA-CD166tp-C, and ^111In-DTPA-CD166tp-G18C (740 MBq/kg/mouse) were intravenously injected into mice. The imaging of CD166 in mice at 2, 4, 24, and 48 h were detected by a nano single-photon emission computed tomography/computed tomography (nanoSPECT/CT; Mediso Medical Imaging Systems, Budapest, Hungary). For competitive study, the CD166^+HCT15-derived xenograft mice were pre-treated with CD166tp-G18C (0, 10, and 50 mg/kg) for 6 h. Every mouse then received 740 MBq/kg ^111In-DTPA-CD166tp-G18C via intravenous injection for 24 and 48 h. The competitive CD166 images were observed by a nanoSPECT/CT.

[2] = tested on: CD166^+HCT15 xenograft mice; test: in vivo; details: mouse
Procedure: (§1) CD166^+HCT15 cells were subcutaneously injected into the right hindlimb of mice for establishing CD166-expressed CRC xenograft mouse model. After tumor formation, the ^111In-DTPA, ^111In-DTPA-G18C, ^111In-DTPA-CD166tp-C, and ^111In-DTPA-CD166tp-G18C (148 MBq/kg/mouse) were intravenously injected into mice […]. After 2, 4, 24, and 48 h post-injection, mice were sacrificed and collected blood and organs including the brain, heart, lung, liver, spleen, kidneys, stomach, small intestine, colon, muscle, and tumor. The organ weight was measured. The radioactivity in blood and organs was determined by a 1470 WIZARD gamma counter (PerkinElmer). The percentage of injected dose per gram of tissue (%ID/g) was calculated.

in vivo = details: mouse, iv, 148 MBq/kg/mouse, total radioactivity
Procedure: as §1

[3] = tested on: CD166^+HCT15 and CD166^−HCT15 cells; test: Cell viability assay (CCK-8), cell resistance; details: 1, 5 and 50 μM, 24 h; absorbance 450 nm; Fig. 3b; n ≥ 5
CD166 protein = biological target: T1, CD166 protein (Homo sapiens, UniProt Q13740); test: CD166tp-G18C and CD166 protein interaction assay (immunoprecipitation with CD166 antibody); format: binding; design: endogenous in cells; host or cells: HCT15 cells (sorted CD166+ and CD166- populations); details: Fig. 5c
T1 sequence (Q13740 28-583): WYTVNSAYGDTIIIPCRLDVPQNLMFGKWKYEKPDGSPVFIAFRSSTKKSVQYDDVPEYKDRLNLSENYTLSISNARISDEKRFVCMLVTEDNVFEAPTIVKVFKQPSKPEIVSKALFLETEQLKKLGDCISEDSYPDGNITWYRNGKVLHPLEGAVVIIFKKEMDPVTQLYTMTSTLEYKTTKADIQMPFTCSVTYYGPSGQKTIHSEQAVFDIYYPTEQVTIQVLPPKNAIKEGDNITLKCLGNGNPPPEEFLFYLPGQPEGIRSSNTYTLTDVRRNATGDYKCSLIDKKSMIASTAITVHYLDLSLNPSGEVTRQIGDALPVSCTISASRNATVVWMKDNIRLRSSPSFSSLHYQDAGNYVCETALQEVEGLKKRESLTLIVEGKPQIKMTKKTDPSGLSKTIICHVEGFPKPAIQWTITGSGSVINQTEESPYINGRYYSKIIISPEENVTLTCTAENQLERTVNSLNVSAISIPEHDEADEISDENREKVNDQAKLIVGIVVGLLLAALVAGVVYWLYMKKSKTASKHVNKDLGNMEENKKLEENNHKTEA
Procedure: HCT15 cells (1 × 10^6 cells) were incubated with 20 μg/mL CD166tp-G18C-FITC in the presence or absence of 20 μg/mL CD166tp-G18C at 4 °C for 1 h. After treating immunoblotting lysis buffer with protease inhibitors cocktail (Hycell International, Taipei, Taiwan), the mixture solution was centrifuged at 14,000 rpm (4 °C) for 10 min. The supernatant was treated with or without 2 μg/mL biotinylated-CD166 antibody (Novus Biologicals, Littleton, CO, USA)-conjugated streptavidin agarose beads (Sigma-Aldrich) at 4 °C overnight. In the competitive group, cells were pre-treated with CD166tp-G18C (20 μg/mL) for 1 h at 4 °C. The fluorescence of immunoprecipitates was detected by an ELISA reader (Perkin Elmer).

CD166^+HCT15 cells [4] = test: CD166tp-G18C binding assay by immunofluorescence staining; format: cell-based, human; details: fixed, 20 μg/mL, 2 h, Fig. 5b
Procedure: (§2) The CD166tp-G18C binding assay was determined by immunofluorescence staining in both CD166^−HCT15 and CD166^+HCT15 cells. Briefly, cells (1 × 10^4 cells) were seeded in 4-well Millicell EZ slides (Merck Millipore, Germany) with culture medium at 37 °C and 5% CO2 for 16 h. Cells were fixed using 4% paraformaldehyde for 30 min at 37 °C. The fixed-cells were then incubated in the SuperBlock Blocking Buffers (Thermo Fisher Scientific, USA) for 30 min. Cells were incubated with CD166tp-G18C-FITC (20 μg/mL) for 2 h. DAPI was used to stain the cell nuclei at a concentration of 0.2 μg DAPI/mL PBS for 10 min. The images were captured by a fluorescence microscope (BX53, Olympus, Japan) coupled to a CCD camera. Digital images were analyzed by an Image-Pro Plus software (Media Cybernetics, USA).

CD166^−HCT15 cells = test: as above; format: cell-based, human; details: fixed, 20 μg/mL, 2 h, Fig. 5b
Procedure: as §2

CD166^+HCT15 cells [5] = test: CD166tp-G18C binding assay by flow cytometry; format: cell-based, human; details: Fig. 5a
Procedure: For CD166 detection on the cellular surface, the optimized density (1 × 10^6 cell) of CD166^+HCT15 and CD166^−HCT15 cells were added with 1 mL PBS with 20 μg IgG-FITC and FITC-conjugated CD166 antibody (CD166ab-FITC) for 1 h. For the CD166tp-G18C binding assay, CD166^+HCT15 and CD166^−HCT15 cells were added with 1 mL PBS with 20 μg CD166tp-G18C-FITC and G18C-FITC for 1 h. In competitive group, CD166^+HCT15 cells were pre-treated with CD166tp-G18C (20 μg/mL) for 1 h and then added 20 μg/mL CD166tp-G18C-FITC for 1 h. After PBS washing, cells were collected for flow cytometric analysis using a FACSCalibur Flow Cytometer (BD Bioscience, San Diego, CA, USA).

CC(C)C[C@H](NC(=O)[C@H](CC(N)=O)NC(=O)[C@H](CO)NC(=O)[C@H](CC(N)=O)NC(=O)CNC(=O)[C@H](CCC(=O)O)NC(=O)[C@H](CO)NC(=O)[C@@H](N)CC(=O)O)C(=O)N[C@@H](CS)C(=O)N[C@@H](CO)C(=O)N[C@@H](CCC(N)=O)C(=O)N[C@@H](CO)C(=O)NCC(=O)NCC(=O)NCC(=O)NCC(=O)NCC(=O)NCC(=O)NCC(=O)NCC(=O)NCC(=O)NCC(=O)NCC(=O)NCC(=O)NCC(=O)NCC(=O)NCC(=O)NCC(=O)NCC(=O)NCC(=O)N[C@@H](CSC1CC(=O)N(CCCC(=O)NCCCCC(C(=O)O)N(CCN(CC(=O)O)CC(=O)O)CCN(CC(=O)O)CC(=O)O)C1=O)C(=O)O (some centres unmarked) [^111In-DTPA-CD166tp-G18C, metal not drawn] (H-DSEGNSNLCSQSGGGGGGGGGGGGGGGGGGC(X1)-OH; N-terminus and C-terminus assumed)
difference of counts between background and tumor area (nanoSPECT/CT) [1]: about 8 times | ratio of tumor-to-blood (T/B) [2]: remarkably increased | ratio of tumor-to-muscle (T/M) [2]: remarkably increased | tumor-to-blood ratios [2]: 5.94 ± 0.51 | tissue to tissue ratio at 48 h (in vivo): 48.9 ± 5.03 | tissue uptake at 4 h (in vivo): 10.1 ± 1.26 %ID/g | tissue uptake at 24 h (in vivo): 11.1 ± 2.2 %ID/g

COc1cccc2c1C(=O)c1c(O)c3c(c(O)c1C2=O)C[C@@](O)(C(=O)CO)C[C@@H]3O[C@H]1C[C@H](N)[C@H](O)[C@H](C)O1 [doxorubicin]
resistance of CD166^+HCT15 cells as compared to CD166^−HCT15 cells (cell viability, CCK-8) [3]: significant resistance

CD166tp-G18C-FITC: FITC-labeled CD166tp-G18C (DSEGNSNLCSQSGGGGGGGGGGGGGGGGGGC; cysteine pairing not given here; also: FITC label, site not given here)
binding via CD166 protein (fluorescence of CD166 antibody immunoprecipitates) (CD166 protein; CD166^+HCT15 cells, 20 μg/mL, 1 h, 4 °C, biotinylated-CD166 antibody 2 μg/mL, n ≥ 3): could bind | binding ability by immunofluorescence (CD166^+HCT15 cells [4]): increased | binding ability by immunofluorescence (CD166^−HCT15 cells): but not in CD166^−HCT15 cells | fluorescence of CD166tp-G18C-FITC on cells (flow cytometry) (CD166^+HCT15 cells [5]; CD166^+HCT15 cells, 20 μg/mL, 1 h, n ≥ 3): significantly increased

DSEGNSNLCSQSGGGGGGGGGGGGGGGGGGC [CD166tp-G18C, Glycine18-Cysteine-linked CD166-targeted peptide]
competition: effect of pretreatment on CD166tp-G18C-FITC binding (immunoprecipitation assay) (CD166 protein; pre-treated with 20 μg/mL for 1 h at 4 °C): could be inhibited | competition: effect of pretreatment on binding efficiency of CD166tp-G18C-FITC (flow cytometry) (CD166^+HCT15 cells [5]; CD166^+HCT15 cells pre-treated with 20 μg/mL for 1 h, then 20 μg/mL CD166tp-G18C-FITC 1 h): markedly decreased the binding efficiency of CD166tp-G18C-FITC
